According to patent publication US20250197491A1 (MACOMICS, published 2025):

Tests used:
[1] = target: LILRB3 recombinant, full-length ectodomain (LILRB3 24-443) (human, UniProt O75022 24-443); assay: multi-point ELISA, antigen coated, apparent EC50
Procedure: (§1) FIG. 32. Binding of Clones 1-5 to selected LILR family members tested by multiple point ELISA. Recombinant LILRB1, LILRB2, LILRB3, LILRA1, LILRA3, LILRA4, and LILRA6, or irrelevant control protein were coated on the ELISA plates. The plates were then blocked with milk in PBST. Next, the plates were incubated with serial dilutions (12.5 nM to 0.02 nM) of Clones 1-5 (A-E). Bound antibodies were detected using HRP-conjugated anti-human Fc antibodies and the chromogenic substrate.
as §1, with “Binding of” for “FIG. 32. Binding of”, “point ELISA. (FIG. 32) Recombinant LILRB1,” for “point ELISA. Recombinant LILRB1,”, “LILRA3, LILRA4, LILRA6, or” for “LILRA3, LILRA4, and LILRA6, or”, “nM) of Clone 1-5 (A-E).” for “nM) of Clones 1-5 (A-E).”

Human LILRA1 ectodomain = target: T1, Human LILRA1 ectodomain (human, UniProt O75019 17-461); assay: multi-point ELISA, antigen coated, apparent EC50
T1 construct: Recombinant protein from a commercial source
Procedure: as §1
as §1, with “Binding of” for “FIG. 32. Binding of”, “point ELISA. (FIG. 32) Recombinant LILRB1,” for “point ELISA. Recombinant LILRB1,”, “LILRA3, LILRA4, LILRA6, or” for “LILRA3, LILRA4, and LILRA6, or”, “nM) of Clone 1-5 (A-E).” for “nM) of Clones 1-5 (A-E).”

[2] = target: LILRB2 recombinant, full-length ectodomain (LILRB2 22-458) (human, UniProt Q8N423 22-458); assay: multi-point ELISA, antigen coated, apparent EC50
Procedure: as §1
as §1, with “Binding of” for “FIG. 32. Binding of”, “point ELISA. (FIG. 32) Recombinant LILRB1,” for “point ELISA. Recombinant LILRB1,”, “LILRA3, LILRA4, LILRA6, or” for “LILRA3, LILRA4, and LILRA6, or”, “nM) of Clone 1-5 (A-E).” for “nM) of Clones 1-5 (A-E).”

[3] = target: LILRA6 recombinant, full-length ectodomain (LILRA6 24-447) (human, UniProt Q6PI73 24-447); assay: multi-point ELISA, antigen coated, apparent EC50
Procedure: as §1
as §1, with “Binding of” for “FIG. 32. Binding of”, “point ELISA. (FIG. 32) Recombinant LILRB1,” for “point ELISA. Recombinant LILRB1,”, “LILRA3, LILRA4, LILRA6, or” for “LILRA3, LILRA4, and LILRA6, or”, “nM) of Clone 1-5 (A-E).” for “nM) of Clones 1-5 (A-E).”

[4] = target: LILRA4 recombinant, full-length ectodomain (LILRA4 24-446) (human, UniProt P59901 24-446); assay: multi-point ELISA, antigen coated, apparent EC50
Procedure: as §1
as §1, with “Binding of” for “FIG. 32. Binding of”, “point ELISA. (FIG. 32) Recombinant LILRB1,” for “point ELISA. Recombinant LILRB1,”, “LILRA3, LILRA4, LILRA6, or” for “LILRA3, LILRA4, and LILRA6, or”, “nM) of Clone 1-5 (A-E).” for “nM) of Clones 1-5 (A-E).”

Human full length LILRA3 = target: T2, Human full length LILRA3 (human, UniProt Q8N6C8 24-439); assay: multi-point ELISA, antigen coated, apparent EC50
T2 construct: Commercial recombinant protein; also the parent of the LILRA3 peptide microarrays
Procedure: as §1
as §1, with “Binding of” for “FIG. 32. Binding of”, “point ELISA. (FIG. 32) Recombinant LILRB1,” for “point ELISA. Recombinant LILRB1,”, “LILRA3, LILRA4, LILRA6, or” for “LILRA3, LILRA4, and LILRA6, or”, “nM) of Clone 1-5 (A-E).” for “nM) of Clones 1-5 (A-E).”

[5] = target: LILRB1 recombinant, full-length ectodomain (human, UniProt Q8NHL6 24-461); assay: multi-point ELISA, antigen coated, apparent EC50
Procedure: as §1
as §1, with “Binding of” for “FIG. 32. Binding of”, “point ELISA. (FIG. 32) Recombinant LILRB1,” for “point ELISA. Recombinant LILRB1,”, “LILRA3, LILRA4, LILRA6, or” for “LILRA3, LILRA4, and LILRA6, or”, “nM) of Clone 1-5 (A-E).” for “nM) of Clones 1-5 (A-E).”

[6] = target: T3, human LILRB1 ectodomain fused to mIgG2a Fc (human); assay: summary table (ELISA); Y = Yes
T3 construct: also called human LILRB1-mIgG2a; full length LILRB1 ectodomain

[7] = target: LILRA5 recombinant, full-length ectodomain (LILRA5 42-268) (human, UniProt A6NI73 42-268); assay: summary table (single point ELISA); N = No
Human LILRA2 ectodomain = target: T4, Human LILRA2 ectodomain (human, UniProt Q8N149 24-449); assay: summary table (single point ELISA); N = No
T4 construct: Recombinant protein from a commercial source

[8] = target: LILRB4 recombinant, full-length ectodomain (LILRB4 17-257) (human, UniProt Q8NHJ6 22-257); assay: summary table (single point ELISA); N = No
[9] = target: LILRB5 recombinant, full-length ectodomain (LILRB5 18-456) (human, UniProt O75023 24-456); assay: summary table (single point ELISA); N = No
[10] = target: T5, Cynomolgus monkey (Macaca fascicularis) LILRB ectodomain fused to mIgG2a (cynomolgus monkey (Macaca fascicularis)); assay: summary table (ELISA); Rhesus & Cyno LILRB1/2 binding; Y = Yes
T5 construct: also called cynomolgus LILRB protein

[11] = target: T6, Rhesus monkey (Macaca mulatta) LILRB ectodomain fused to mIgG2a Fc (rhesus monkey (Macaca mulatta)); assay: as above
T6 construct: also called rhesus LILRB-mIgG2a; rhesus LILRB protein

[12] = target: human LILRB1 (coated on plates in the competition ELISA) (human, UniProt Q8NHL6 24-461, limits assumed); assay: competition ELISA on coated human LILRB1; competitor 5 nM biotinylated Antibody 2
Procedure: FIG. 33. Cross-competition between Antibody (Clone) 2 and other Abs in ELISA. Plates were coated with human LILRB1 and, after blocking, incubated with 5 nM of biotinylated Clone 2 and different concentrations of unlabelled Clones 1-5 and the Reference 1-3 Abs. Bound biotinylated Clone 2 was detected using HRP-conjugated streptavidin and a chromogenic substrate. Unlabelled Clone 2 competed its biotinylated counterpart with low nM IC₅₀, while Clones 1, 3, 4 and 5 each yielded IC₅₀ of about 10 nM. None of the Reference Abs, nor the isotype control, could compete with Antibody 2 up to 250 nM concentrations.
Antibodies 1 to 5 were all found to bind within the D3-D4 fragment of human LILRB1. To investigate if Antibody 2 binds to an epitope similar to or different from the epitope of the other Antibodies (and Reference Antibodies) a competitive ELISA was performed. Plates were coated with human LILRB1 and after blocking incubated with 5 nM of biotinylated Antibody 2 and different concentrations of each unlabelled Antibody 1-5 and the Reference Antibodies 1 to 3. Bound biotinylated Antibody 2 was detected using HRP-conjugated streptavidin and a chromogenic substrate. Unlabelled Antibody 2 competed its biotinylated counterpart with low nM IC₅₀, while Antibodies 1, 3, 4 and 5 yielded IC₅₀ about 10 nM. None of the Reference Abs nor the isotype control could compete with Antibody 2 up to 250 nM concentrations.

[13] = target: T7, Human LILRB1 (D1-D2) fused to mouse IgG2a Fc (human); assay: summary table (ELISA); N = No
T7 construct: also called truncated (D1-D2) version of the LILRB1 ecto-domain
T7 sequence (chain, as listed by the source limits assumed): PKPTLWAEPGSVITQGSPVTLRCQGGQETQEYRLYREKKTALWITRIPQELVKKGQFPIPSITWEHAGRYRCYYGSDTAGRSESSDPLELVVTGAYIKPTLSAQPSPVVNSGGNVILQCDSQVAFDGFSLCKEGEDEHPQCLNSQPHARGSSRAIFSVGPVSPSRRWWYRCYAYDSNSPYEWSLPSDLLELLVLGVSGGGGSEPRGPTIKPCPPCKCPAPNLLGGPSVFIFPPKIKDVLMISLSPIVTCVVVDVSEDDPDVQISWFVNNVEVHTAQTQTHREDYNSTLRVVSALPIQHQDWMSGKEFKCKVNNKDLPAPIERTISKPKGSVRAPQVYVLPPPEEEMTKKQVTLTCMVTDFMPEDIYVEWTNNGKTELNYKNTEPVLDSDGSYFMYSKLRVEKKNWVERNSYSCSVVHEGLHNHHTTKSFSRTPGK

T3 sequence (chain, as listed by the source limits assumed): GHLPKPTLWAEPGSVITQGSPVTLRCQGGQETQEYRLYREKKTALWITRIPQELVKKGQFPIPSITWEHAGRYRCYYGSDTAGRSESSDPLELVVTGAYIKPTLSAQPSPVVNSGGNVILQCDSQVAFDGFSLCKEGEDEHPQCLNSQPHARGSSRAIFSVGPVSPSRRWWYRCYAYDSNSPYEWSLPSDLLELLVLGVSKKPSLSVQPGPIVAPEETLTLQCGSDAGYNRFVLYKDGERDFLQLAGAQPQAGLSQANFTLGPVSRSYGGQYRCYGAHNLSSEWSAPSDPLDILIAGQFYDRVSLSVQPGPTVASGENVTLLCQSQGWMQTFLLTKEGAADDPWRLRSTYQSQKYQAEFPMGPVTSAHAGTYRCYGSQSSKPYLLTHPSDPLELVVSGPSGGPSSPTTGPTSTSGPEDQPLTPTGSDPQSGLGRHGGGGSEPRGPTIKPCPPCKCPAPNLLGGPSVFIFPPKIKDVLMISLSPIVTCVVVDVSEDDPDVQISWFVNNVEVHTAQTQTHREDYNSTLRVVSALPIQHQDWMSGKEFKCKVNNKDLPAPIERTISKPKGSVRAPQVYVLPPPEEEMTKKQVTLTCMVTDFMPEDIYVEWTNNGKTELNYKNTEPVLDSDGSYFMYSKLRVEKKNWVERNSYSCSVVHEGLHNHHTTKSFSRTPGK
T1 sequence (O75019 17-461): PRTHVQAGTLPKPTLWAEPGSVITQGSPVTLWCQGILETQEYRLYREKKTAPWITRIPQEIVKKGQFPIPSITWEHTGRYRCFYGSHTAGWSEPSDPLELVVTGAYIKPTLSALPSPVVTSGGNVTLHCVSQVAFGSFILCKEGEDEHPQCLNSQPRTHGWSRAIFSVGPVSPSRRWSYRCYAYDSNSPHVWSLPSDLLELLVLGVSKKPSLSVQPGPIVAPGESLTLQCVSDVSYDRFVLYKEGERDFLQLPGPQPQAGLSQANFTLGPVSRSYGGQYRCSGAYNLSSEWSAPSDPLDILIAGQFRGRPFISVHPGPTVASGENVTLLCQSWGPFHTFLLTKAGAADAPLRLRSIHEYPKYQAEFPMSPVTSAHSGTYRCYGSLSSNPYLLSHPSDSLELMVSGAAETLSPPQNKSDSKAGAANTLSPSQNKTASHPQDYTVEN
Chain of LILRB3 recombinant, full-length ectodomain (LILRB3 24-443) (O75022 24-443): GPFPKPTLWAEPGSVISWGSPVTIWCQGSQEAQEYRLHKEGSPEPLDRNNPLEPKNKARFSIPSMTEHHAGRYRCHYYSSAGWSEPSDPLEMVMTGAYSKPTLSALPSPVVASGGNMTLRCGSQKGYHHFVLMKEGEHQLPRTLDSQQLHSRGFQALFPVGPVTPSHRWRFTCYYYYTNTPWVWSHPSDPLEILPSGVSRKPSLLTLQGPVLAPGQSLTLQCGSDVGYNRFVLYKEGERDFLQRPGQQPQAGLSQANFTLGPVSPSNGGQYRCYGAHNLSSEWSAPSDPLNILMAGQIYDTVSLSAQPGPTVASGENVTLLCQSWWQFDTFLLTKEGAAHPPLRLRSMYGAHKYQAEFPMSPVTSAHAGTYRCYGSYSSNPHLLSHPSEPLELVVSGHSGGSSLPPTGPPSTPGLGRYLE
T5 sequence (chain, as listed by the source limits assumed): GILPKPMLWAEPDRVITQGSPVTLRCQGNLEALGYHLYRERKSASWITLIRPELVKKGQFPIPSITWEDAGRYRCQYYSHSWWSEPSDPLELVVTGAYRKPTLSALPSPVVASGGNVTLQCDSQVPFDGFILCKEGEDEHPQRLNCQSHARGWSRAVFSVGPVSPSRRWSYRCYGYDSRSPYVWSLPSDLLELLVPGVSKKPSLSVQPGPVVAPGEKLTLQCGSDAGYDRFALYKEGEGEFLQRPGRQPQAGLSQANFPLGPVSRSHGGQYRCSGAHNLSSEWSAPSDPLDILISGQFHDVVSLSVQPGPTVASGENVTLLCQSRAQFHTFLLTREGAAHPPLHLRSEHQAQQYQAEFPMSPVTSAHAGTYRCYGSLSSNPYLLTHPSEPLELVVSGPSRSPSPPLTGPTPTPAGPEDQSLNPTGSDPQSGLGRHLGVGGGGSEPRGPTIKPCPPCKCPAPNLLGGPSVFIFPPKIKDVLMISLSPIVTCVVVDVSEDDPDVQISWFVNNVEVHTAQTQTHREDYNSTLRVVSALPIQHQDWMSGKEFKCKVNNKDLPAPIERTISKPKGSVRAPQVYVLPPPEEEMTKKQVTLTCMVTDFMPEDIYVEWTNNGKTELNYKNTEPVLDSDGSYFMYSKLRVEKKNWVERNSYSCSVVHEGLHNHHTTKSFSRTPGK
Chain of LILRB2 recombinant, full-length ectodomain (LILRB2 22-458) (Q8N423 22-458): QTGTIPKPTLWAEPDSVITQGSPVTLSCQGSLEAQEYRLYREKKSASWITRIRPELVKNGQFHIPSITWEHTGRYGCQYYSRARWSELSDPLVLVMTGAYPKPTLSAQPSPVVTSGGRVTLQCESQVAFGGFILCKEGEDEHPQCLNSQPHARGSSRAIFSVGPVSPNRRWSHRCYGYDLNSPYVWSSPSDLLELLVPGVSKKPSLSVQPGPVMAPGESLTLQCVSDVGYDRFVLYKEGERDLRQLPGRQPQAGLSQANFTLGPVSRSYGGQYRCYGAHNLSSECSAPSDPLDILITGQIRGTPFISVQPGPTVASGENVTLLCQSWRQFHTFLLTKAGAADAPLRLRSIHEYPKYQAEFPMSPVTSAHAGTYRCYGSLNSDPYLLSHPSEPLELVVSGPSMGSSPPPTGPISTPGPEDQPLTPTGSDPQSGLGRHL
Chain of LILRA5 recombinant, full-length ectodomain (LILRA5 42-268) (A6NI73 42-268): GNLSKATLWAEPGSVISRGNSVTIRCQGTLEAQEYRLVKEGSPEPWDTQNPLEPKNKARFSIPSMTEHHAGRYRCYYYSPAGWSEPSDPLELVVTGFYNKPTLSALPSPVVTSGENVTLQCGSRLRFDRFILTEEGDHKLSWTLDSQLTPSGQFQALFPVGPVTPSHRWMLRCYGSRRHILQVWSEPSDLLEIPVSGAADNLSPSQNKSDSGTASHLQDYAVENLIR
Chain of LILRA6 recombinant, full-length ectodomain (LILRA6 24-447) (Q6PI73 24-447): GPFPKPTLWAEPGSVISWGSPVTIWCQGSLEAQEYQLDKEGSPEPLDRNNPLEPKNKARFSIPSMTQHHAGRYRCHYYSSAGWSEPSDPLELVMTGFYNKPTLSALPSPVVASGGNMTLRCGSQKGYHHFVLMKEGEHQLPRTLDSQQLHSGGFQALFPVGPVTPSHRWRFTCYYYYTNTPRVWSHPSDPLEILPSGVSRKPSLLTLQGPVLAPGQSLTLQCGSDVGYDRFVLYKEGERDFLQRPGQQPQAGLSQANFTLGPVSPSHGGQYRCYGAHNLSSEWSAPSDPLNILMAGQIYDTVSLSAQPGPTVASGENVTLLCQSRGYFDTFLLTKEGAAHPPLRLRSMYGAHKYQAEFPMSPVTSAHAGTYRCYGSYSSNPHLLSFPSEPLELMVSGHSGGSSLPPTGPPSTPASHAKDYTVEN
Chain of LILRA4 recombinant, full-length ectodomain (LILRA4 24-446) (P59901 24-446): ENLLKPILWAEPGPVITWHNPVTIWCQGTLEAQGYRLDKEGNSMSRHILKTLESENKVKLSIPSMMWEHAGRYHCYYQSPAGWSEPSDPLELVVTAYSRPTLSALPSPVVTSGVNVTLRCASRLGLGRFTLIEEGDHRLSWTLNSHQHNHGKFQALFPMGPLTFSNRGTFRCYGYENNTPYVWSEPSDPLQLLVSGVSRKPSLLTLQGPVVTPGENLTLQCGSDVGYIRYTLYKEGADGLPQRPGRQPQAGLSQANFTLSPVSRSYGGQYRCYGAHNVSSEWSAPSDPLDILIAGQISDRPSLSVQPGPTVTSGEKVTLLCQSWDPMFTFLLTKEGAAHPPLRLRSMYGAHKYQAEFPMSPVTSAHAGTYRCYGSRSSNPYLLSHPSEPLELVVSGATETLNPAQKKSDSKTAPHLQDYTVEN
T2 sequence (Q8N6C8 24-439 A105V limits assumed): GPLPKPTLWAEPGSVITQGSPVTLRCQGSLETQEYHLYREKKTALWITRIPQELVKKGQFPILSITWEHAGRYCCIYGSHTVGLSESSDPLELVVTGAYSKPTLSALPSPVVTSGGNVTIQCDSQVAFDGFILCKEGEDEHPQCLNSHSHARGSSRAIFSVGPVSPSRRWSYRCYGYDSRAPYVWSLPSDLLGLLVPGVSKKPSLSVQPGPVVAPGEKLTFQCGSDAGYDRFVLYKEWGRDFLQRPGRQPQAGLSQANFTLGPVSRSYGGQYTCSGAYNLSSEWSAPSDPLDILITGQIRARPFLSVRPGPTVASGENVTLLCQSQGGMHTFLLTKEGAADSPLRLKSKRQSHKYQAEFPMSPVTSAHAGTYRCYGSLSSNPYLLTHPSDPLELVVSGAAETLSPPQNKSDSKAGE

B1: Antibody 1 (antibody, V domains shown)
VH: QVQLVESGGGLVKPGGSLRLSCAASGFTFSDYYMSWIRQAPGKGLEWVSYISSSGSIKKYADSVKGRFTISRDNAKNSLYLQMNSLRGEDTAVYYCARTNWHFDYWGQGTLVTVSS
VL: EIVLTQSPGTLSLSPGERATLSCRASQSVSSSYLAWYQQKPGQAPRLLIFGASTRATGIPDRFSGSGSGTDFTLTISRLEPEDVAVYYCQQYYSTPFTFGPGTKVDIK
notes: Fully human antibody expressed in CHO; also called Clone 1; Antibody Clone 1
EC50 [1]: 2 nM | EC50 (Human LILRA1 ectodomain): 2.38 nM | EC50 [2]: 0.73 nM | EC50 [3]: 1.81 nM | EC50 [4]: 0.81 nM | EC50 (Human full length LILRA3): 0.97 nM | EC50 [5]: 0.55 nM | binding result [6]: binds | binding result [7]: no binding (tested: 1 nM) | binding result (Human LILRA2 ectodomain): no binding (tested: 1 nM) | binding result [8]: no binding (tested: 1 nM) | binding result [9]: no binding (tested: 1 nM) | binding result [10]: binds | binding result [11]: binds | IC50 [12]: ~10 nM | binding result [13]: no binding

B2: Antibody 3 (antibody, V domains shown)
VH: QVQLVQSGAEVKKPGASVKVSCKASGYTFTSYGISWVRQAPGQGLEWMGWISAYNGNTNYAQKLQGRVTMTTDTSTSTAYMELRSLRSDDTAVYYCARSYSGSHWWFDPWGQGTLVTVSS
VL: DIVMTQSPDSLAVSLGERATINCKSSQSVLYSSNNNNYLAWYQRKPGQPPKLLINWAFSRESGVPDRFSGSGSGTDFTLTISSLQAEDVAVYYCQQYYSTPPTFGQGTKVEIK
notes: Fully human antibody; IgG4; also called Clone 3; Antibody Clone 3
EC50 [1]: 1.75 nM | EC50 (Human LILRA1 ectodomain): 1.76 nM | EC50 [2]: 1.28 nM | EC50 [3]: 1.69 nM | EC50 [4]: 1.15 nM | EC50 (Human full length LILRA3): 1.2 nM | EC50 [5]: 1.38 nM | binding result [6]: binds | binding result [7]: no binding (tested: 1 nM) | binding result (Human LILRA2 ectodomain): no binding (tested: 1 nM) | binding result [8]: no binding (tested: 1 nM) | binding result [9]: no binding (tested: 1 nM) | binding result [10]: binds | binding result [11]: binds | IC50 [12]: ~10 nM | binding result [13]: no binding

B3: Antibody 4 (antibody, V domains shown)
VH: QVQLVQSGAEVKKPGASVKVSCKASGYTFTSYGISWVRQAPGQGLEWMGWISAYNGNTNYAQKLQGRVTMTTDTSTSTAYMELRSLRSDDTAVYYCARSYSGSYWWFDPWGQGTLVTVSS
VL: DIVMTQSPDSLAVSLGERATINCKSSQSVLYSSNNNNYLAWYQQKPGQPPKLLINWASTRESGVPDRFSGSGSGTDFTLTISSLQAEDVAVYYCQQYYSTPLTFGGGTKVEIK
notes: Fully human antibody; IgG4; also called Clone 4; Antibody Clone 4
EC50 [1]: 1.38 nM | EC50 (Human LILRA1 ectodomain): 4.1 nM | EC50 [2]: 1.39 nM | EC50 [3]: 2.2 nM | EC50 [4]: 1.38 nM | EC50 (Human full length LILRA3): 1.42 nM | EC50 [5]: 1.24 nM | binding result [6]: binds | binding result [7]: no binding (tested: 1 nM) | binding result (Human LILRA2 ectodomain): no binding (tested: 1 nM) | binding result [8]: no binding (tested: 1 nM) | binding result [9]: no binding (tested: 1 nM) | binding result [10]: binds | binding result [11]: binds | IC50 [12]: ~10 nM | binding result [13]: no binding

B4: Antibody 5 (antibody, V domains shown)
VH: QVQLVESGGGLVKPGGSLRLSCAASGFTFSDYYMTWIRQAPGKGLEWVSYISISGITRYYADSVKGRFTISRDNAKNSLYLQMNSLRAEDTAVYYCARDQTGYFDYWGQGTLVTVSS
VL: DIVMTQSPATLSVSPGEKTTLSCRASQSFSSNLAWYQQKPGQAPRLLIYGASTRATGIPARFSGSGSGTEFTLTISSLQSEDFAVYYCQQYINWPHTFGQGTKVEIK
notes: Fully human antibody; IgG4; also called Clone 5; Antibody Clone 5
EC50 [1]: 0.99 nM | EC50 (Human LILRA1 ectodomain): 9.07 nM | EC50 [2]: 1.04 nM | EC50 [3]: 0.97 nM | EC50 [4]: 0.84 nM | EC50 (Human full length LILRA3): 1.26 nM | EC50 [5]: 0.99 nM | binding result [6]: binds | binding result [7]: no binding (tested: 1 nM) | binding result (Human LILRA2 ectodomain): no binding (tested: 1 nM) | binding result [8]: no binding (tested: 1 nM) | binding result [9]: no binding (tested: 1 nM) | binding result [10]: binds | binding result [11]: binds | IC50 [12]: ~10 nM | binding result [13]: no binding
